Measured values as given in US20110052551A1, “CARDIAC MYOCYTE MORPHOGENIC COMPOSITIONS AND METHODS OF USE THEREFOR” (priority 2008, published 2011).
“Also recorded” adds a separate entry of the source.

Columns and labels:
Assay type in all cases: cell-based, mice
[1] = tested on: unfractionated BMMNCs; assay: qRT-PCR of pluripotency markers Oct-4 and Nanog in cultured BMMNCs; conditions: BMMNCs cultured 21 days, 150 ng/ml; normalized to 18S rRNA
From the text: Isolation and culture of unfractionated BM-derived mononuclear cells (BMMNCs). For each experiment, two mice were euthanized by CO2 inhalation followed by cervical dislocation and their femurs and tibias were removed and placed in Dulbecco's Modified Eagle Medium/F12 (DMEM/F12; Invitrogen Corp.). The bones were stripped of soft tissue with fine forceps exposing the long bone shafts. The BM was flushed into and suspended in fresh DMEM/F12 using a 23-gauge needle and 5-ml syringe. The BM was further dispersed by repeated passage through the 23-gauge needle for 10 minutes.
After filtering cells through a 70 μm nylon mesh filter, the MNC fraction (BMMNCs) were separated using FICOLL-PAQUE™ (Sigma Aldrich, St. Louis, Mo., United States of America) density-gradient centrifugation as described in (Zuba-Surma et al., 2006). See also FIG. 9A. The viability of unfractionated BMMNCs was assessed by Trypan blue (Sigma Aldrich) staining. Approximately 15×10^6 unfractionated BMMNCs were obtained from each mouse. Adult unfractionated BMMNCs were seeded (n=5×10^5 cells/well) in 6-well tissue culture plates (lower chamber of a 6-well tissue culture TRANSWELL® system; Corning Inc. Life Sciences, Lowell, Mass., United States of America) on fibronectin (FN)-coated glass coverslips (Fischer Scientific). […]
Assessment of mRNA expression by quantitative real-time RT-PCR (qRT-PCR). […]

[2] = tested on: unfractionated BMMNCs; assay: Immunocytochemistry for Oct-4-positive BMMNCs; conditions: 21 days, 150 ng/ml
Procedure: Additionally, to assess the influence of Wnt3a on cellular differentiation, unfractionated BMMNCs were cultured separately in the presence of 150 ng/ml of recombinant Wnt3a protein under the same conditions used to culture unfractionated BMMNCs, using pcDNA3/293 cells containing the empty vector as controls (see FIG. 9A).
Immunocytochemistry. Cells were fixed on glass cover-slides with 4% paraformaldehyde for 20 minutes at 4° C. Cells were washed four times and permeabilized with BD PERM/WASH™ (containing saponin; BD Biosciences, San Jose, Calif., United States of America). For immunostaining, separate preparations of BD PERM/WASH™ containing primary monoclonal antibodies against either cardiac troponin T (cTnT; Santa Cruz Biotechnology, Santa Cruz, Calif., United States of America) or cardiac myosin heavy chain (cMyHC; Novus Biologicals, Inc., Littleton, Colo., United States of America) or connexin-43 or Oct-4 were prepared; all primary antibodies, save cMyHC, were purchased from Santa Cruz Biotechnology. Each preparation also contained primary monoclonal antibodies against nestin, glial fibrillary acidic protein (GFAP), CD11B, Gr-1 (myeloid lineage markers), the CD45 epitope, myogenin […]

[3] = tested on: unfractionated BMMNCs; assay: Immunocytochemistry for pan-hematopoietic marker CD45; conditions: after 21 days of culture; percent of total cells
Procedure: Immunocytochemistry. Cells were fixed on glass cover-slides with 4% paraformaldehyde for 20 minutes at 4° C. Cells were washed four times and permeabilized with BD PERM/WASH™ (containing saponin; BD Biosciences, San Jose, Calif., United States of America). For immunostaining, separate preparations of BD PERM/WASH™ containing primary monoclonal antibodies against either cardiac troponin T (cTnT; Santa Cruz Biotechnology, Santa Cruz, Calif., United States of America) or cardiac myosin heavy chain (cMyHC; Novus Biologicals, Inc., Littleton, Colo., United States of America) or connexin-43 or Oct-4 were prepared; all primary antibodies, save cMyHC, were purchased from Santa Cruz Biotechnology. Each preparation also contained primary monoclonal antibodies against nestin, glial fibrillary acidic protein (GFAP), CD11B, Gr-1 (myeloid lineage markers), the CD45 epitope, myogenin
These preparations were then applied separately (i.e., mixtures either with cTnT or with cMyHC) or, for co-immunostaining experiments, in combinations to cells for 16 hours at 4° C. and 37° C. for the final hour. […]

[4] = tested on: unfractionated BMMNCs; assay: Assessment of cardiac differentiation by immunocytochemistry (cMyHC, cTnT); conditions: 21 days of culture
From the text: Induction of differentiation. To assess the influence of ectopic expression of Wnt11 on BMMNC differentiation, Wnt11 conditioned medium (Wnt11-CM) was generated. Specifically, unfractionated BMMNCs were co-cultured with Wnt11-expressing HEK-293 cells (Wnt11/293-2; designated as Wnt11-CM), under the same conditions used to culture BMMNCs. In order to achieve strict separation of cell types during co-culture experiments, BMMNC and Wnt11/293 cells were separated into upper and lower chambers of a TRANSWELL® co-culture system. Wnt11/293-2 or pcDNA3/293 (empty vector) cells (the controls in this experiment) were cultured in the upper chamber on the polyester (PET) membrane of a 24 mm TRANSWELL® insert, and unfractionated BMMNCs were cultured in the lower chamber as described above.
Moreover, to eliminate the possibility of cell fusion or cell-cell contact as a requirement for Wnt11-mediated effects, a membrane pore size of 0.4 μm was chosen, thus preventing egression of Wnt11/293-2 cells to the lower compartment that contained BMMNCs. Of note, TRANSWELL® inserts were maintained separately without cells until day 10 of BMMNC attachment. […]
Assessment of cardiac differentiation. For quantitative assessment of cardiomyocytic differentiation, an average of 2400 cells/plate were counted. Multiple fields from all 4 quarters of the plate were systematically evaluated. […]

B1: Wnt3a: recombinant Wnt3a protein, canonical Wnt, used at 150 ng/ml (protein, UniProt P56704 19-352, looked up)
Protein Wnt-3a: SYPIWWSLAVGPQYSSLGSQPILCASIPGLVPKQLRFCRNYVEIMPSVAEGIKIGIQECQHQFRGRRWNCTTVHDSLAIFGPVLDKATRESAFVHAIASAGVAFAVTRSCAEGTAAICGCSSRHQGSPGKGWKWGGCSEDIEFGGMVSREFADARENRPDARSAMNRHNNEAGRQAIASHMHLKCKCHGLSGSCEVKTCWWSQPDFRAIGDFLKDKYDSASEMVVEKHRESRGWVETLRPRYTYFKVPTERDLVYYEASPNFCEPNPETGSFGTRDRTCNVSSHGIDGCDLLCCGRGHNARAERRREKCRCVFHWCCYVSCQECTRVYDVHTCK
- increase in Nanog mRNA expression compared with baseline [1]: 158±0.6 fold
- increase in Oct-4 mRNA expression compared with baseline [1]: 177±0.4 fold
- number of Oct-4-positive BMMNCs compared with untreated control [2]: marked increase; also recorded: a much greater number
- cells positive for CD45 [3]: 69.9±2.9%
- expression of cardiac-specific contractile proteins (cTnT, cMyHC) [4]: not observed
